Data: article PMC5711802, “Conservation of folding and association within a family of spidroin N-terminal domains” (Scientific Reports, 2017)

Legend:
[1] = target: MaSp1 N-terminal domain (NTD), L. hesperus (UniProt A6YIY1); assay: Kd calculated by the authors from the stopped-flow rate constants (kdiss from C4 / kass from C3); conditions: pH 6.0; 298 K; about 60 mM (KCl) for kdiss; not stated exactly for kass; 20 mM MES pH 6.0
[2] = target: MaSp1 N-terminal domain (NTD), L. hesperus (UniProt A6YIY1); assay: stopped-flow Trp fluorescence, pH jump (association kinetics); conditions: pH 6.0; 298 K; final value not stated (sample at I 150 mM KCl diluted 1:11 into 20 mM MES pH 6.0); 20 mM MES pH 6.0 after mixing (start: 10 mM MES pH 7.0)
[3] = target: MaSp1 N-terminal domain (NTD), E. australis (UniProt Q05H60); assay: Kd calculated by the authors from the stopped-flow rate constants (kdiss from C4 / kass from C3); conditions: pH 6.0; 298 K; about 60 mM (KCl) for kdiss; not stated exactly for kass; 20 mM MES pH 6.0
[4] = target: MaSp1 N-terminal domain (NTD), E. australis (UniProt Q05H60); assay: stopped-flow Trp fluorescence, pH jump (association kinetics); conditions: pH 6.0; 298 K; final value not stated (sample at I 150 mM KCl diluted 1:11 into 20 mM MES pH 6.0); 20 mM MES pH 6.0 after mixing (start: 10 mM MES pH 7.0)
[5] = target: N-terminal domain (NTD) of major ampullate spidroin 1 (MaSp1) from Nephila clavipes (Nephila clavipes); assay: SEC-MALS; dimer conditions: 20 mM MES pH 6.0, ionic strength 60 mM (KCl); 100 uL at 5 mg/mL on Superdex-75 HR10/300, 0.5 ml/min
[6] = target: N-terminal domain (NTD) of major ampullate spidroin 1 (MaSp1) from Nephila clavipes (Nephila clavipes); assay: stopped-flow tryptophan fluorescence + other: stopped-flow AttoOxa11 fluorescence chasing experiment; dimer to monomers; Kd calculated as k diss/k ass from the two kinetic experiments; pH 6.0, 298 K
[7] = target: N-terminal domain (NTD) of major ampullate spidroin 1 (MaSp1) from Nephila clavipes (Nephila clavipes); assay: stopped-flow tryptophan fluorescence (association kinetics); monomer to dimer; monomeric NTD in 10 mM MES pH 7.0, I 150 mM (KCl), mixed 1:11 into 20 mM MES pH 6.0; three concentrations between 0.1 and 1 uM; 298 K; fit to a kinetic model of dimerization
[8] = target: MaSp1 NTD Q50C-AttoOxa11, L. hesperus Q50C (UniProt A6YIY1); assay: stopped-flow AttoOxa11 fluorescence, chasing experiment (dissociation kinetics); conditions: pH 6.0; 298 K; I adjusted to 60 mM using potassium chloride; 20 mM MES pH 6.0
[9] = target: MaSp1 NTD Q50C-AttoOxa11, N. clavipes Q50C (UniProt B5SYS5); assay: as above; conditions: pH 6.0; 298 K; I adjusted to 60 mM using potassium chloride; 20 mM MES pH 6.0
[10] = target: N-terminal domain (NTD) of major ampullate spidroin 1 (MaSp1) from Latrodectus hesperus (Latrodectus hesperus); assay: SEC-MALS; dimer conditions: 20 mM MES pH 6.0, ionic strength 60 mM (KCl); 100 uL at 5 mg/mL on Superdex-75 HR10/300, 0.5 ml/min
[11] = target: N-terminal domain (NTD) of major ampullate spidroin 1 (MaSp1) from Latrodectus hesperus (Latrodectus hesperus); assay: stopped-flow tryptophan fluorescence + other: stopped-flow AttoOxa11 fluorescence chasing experiment; dimer to monomers; Kd calculated as k diss/k ass from the two kinetic experiments; pH 6.0, 298 K
[12] = target: N-terminal domain (NTD) of major ampullate spidroin 1 (MaSp1) from Latrodectus hesperus (Latrodectus hesperus); assay: stopped-flow tryptophan fluorescence (association kinetics); monomer to dimer; monomeric NTD in 10 mM MES pH 7.0, I 150 mM (KCl), mixed 1:11 into 20 mM MES pH 6.0; three concentrations between 0.1 and 1 uM; 298 K; fit to a kinetic model of dimerization
[13] = target: AttoOxa11-modified Q50C mutant of the MaSp1 NTD from Euprosthenops australis (Euprosthenops australis); assay: stopped-flow AttoOxa11 fluorescence chasing experiment (dissociation kinetics); dimer to monomers; 0.1 uM dimeric AttoOxa11-modified NTD in 20 mM MES pH 6.0, I 60 mM (KCl), chased with 9 uM non-modified NTD in the same buffer; 0.3 mg/mL BSA and 0.05% Tween-20; 298 K; mono-exponential fit
[14] = target: MaSp1 N-terminal domain (NTD), L. geometricus; assay: Kd calculated by the authors from the stopped-flow rate constants (kdiss from C4 / kass from C3); conditions: pH 6.0; 298 K; about 60 mM (KCl) for kdiss; not stated exactly for kass; 20 mM MES pH 6.0
[15] = target: MaSp1 N-terminal domain (NTD), L. geometricus; assay: stopped-flow Trp fluorescence, pH jump (association kinetics); conditions: pH 6.0; 298 K; final value not stated (sample at I 150 mM KCl diluted 1:11 into 20 mM MES pH 6.0); 20 mM MES pH 6.0 after mixing (start: 10 mM MES pH 7.0)
[16] = target: MaSp1 NTD Q50C-AttoOxa11, L. geometricus Q50C; assay: stopped-flow AttoOxa11 fluorescence, chasing experiment (dissociation kinetics); conditions: pH 6.0; 298 K; I adjusted to 60 mM using potassium chloride; 20 mM MES pH 6.0
[17] = target: MaSp1 N-terminal domain (NTD), N. clavipes (UniProt B5SYS5); assay: Kd calculated by the authors from the stopped-flow rate constants (kdiss from C4 / kass from C3); conditions: pH 6.0; 298 K; about 60 mM (KCl) for kdiss; not stated exactly for kass; 20 mM MES pH 6.0
[18] = target: MaSp1 N-terminal domain (NTD), N. clavipes (UniProt B5SYS5); assay: stopped-flow Trp fluorescence, pH jump (association kinetics); conditions: pH 6.0; 298 K; final value not stated (sample at I 150 mM KCl diluted 1:11 into 20 mM MES pH 6.0); 20 mM MES pH 6.0 after mixing (start: 10 mM MES pH 7.0)
[19] = target: MaSp1 NTD Q50C-AttoOxa11, E. australis Q50C (UniProt Q05H60); assay: stopped-flow AttoOxa11 fluorescence, chasing experiment (dissociation kinetics); conditions: pH 6.0; 298 K; I adjusted to 60 mM using potassium chloride; 20 mM MES pH 6.0
[20] = target: T1, N-terminal domain (NTD) of major ampullate spidroin 1 (MaSp1) from Euprosthenops australis (Euprosthenops australis), Q05H60; assay: stopped-flow tryptophan fluorescence (association kinetics); monomer to dimer; monomeric NTD in 10 mM MES pH 7.0, I 150 mM (KCl), mixed 1:11 into 20 mM MES pH 6.0; three concentrations between 0.1 and 1 uM; 298 K; fit to a kinetic model of dimerization; conditions: remark: other sources report otherwise
T1 chain: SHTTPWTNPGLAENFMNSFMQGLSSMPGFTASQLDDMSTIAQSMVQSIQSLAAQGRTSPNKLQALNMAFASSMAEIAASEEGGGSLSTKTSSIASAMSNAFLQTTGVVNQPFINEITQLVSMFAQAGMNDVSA

[21] = target: T1, N-terminal domain (NTD) of major …; assay: SEC-MALS; dimer conditions: 20 mM MES pH 6.0, ionic strength 60 mM (KCl); 100 uL at 5 mg/mL on Superdex-75 HR10/300, 0.5 ml/min; conditions: remark: other sources report otherwise
[22] = target: T1, N-terminal domain (NTD) of major …; assay: stopped-flow tryptophan fluorescence + other: stopped-flow AttoOxa11 fluorescence chasing experiment; dimer to monomers; Kd calculated as k diss/k ass from the two kinetic experiments; pH 6.0, 298 K; conditions: remark: other sources report otherwise
[23] = target: the molecule itself; assay: stopped-flow AttoOxa11 fluorescence chasing experiment (dissociation kinetics); dimer to monomers; 0.1 uM dimeric AttoOxa11-modified NTD in 20 mM MES pH 6.0, I 60 mM (KCl), chased with 9 uM non-modified NTD in the same buffer; 0.3 mg/mL BSA and 0.05% Tween-20; 298 K; mono-exponential fit
[24] = target: the molecule itself; assay: stopped-flow tryptophan fluorescence (association kinetics); monomer to dimer; monomeric NTD in 10 mM MES pH 7.0, I 150 mM (KCl), mixed 1:11 into 20 mM MES pH 6.0; three concentrations between 0.1 and 1 uM; 298 K; fit to a kinetic model of dimerization
[25] = target: the molecule itself; assay: SEC-MALS; dimer conditions: 20 mM MES pH 6.0, ionic strength 60 mM (KCl); 100 uL at 5 mg/mL on Superdex-75 HR10/300, 0.5 ml/min
[26] = target: the molecule itself; assay: stopped-flow tryptophan fluorescence + other: stopped-flow AttoOxa11 fluorescence chasing experiment; dimer to monomers; Kd calculated as k diss/k ass from the two kinetic experiments; pH 6.0, 298 K

MaSp1 N-terminal domain (NTD), L. hesperus
K d [1]: 0.14 10^-9 M
k ass (10^9 M^-1 s^-1) [2]: 2.19

MaSp1 N-terminal domain (NTD), E. australis
K d [3]: 1.07 10^-9 M
k ass (10^9 M^-1 s^-1) [4]: 1.58

N-terminal domain (NTD) of major ampullate spidroin 1 (MaSp1) from Nephila clavipes (domain or fragment)
stoichiometry N [5]: 2
K d [6]: 0.73 nM
kon [7]: 2.58e+09 M⁻¹ s⁻¹

MaSp1 NTD Q50C-AttoOxa11, L. hesperus Q50C
k diss [8]: 0.31 s⁻¹

MaSp1 NTD Q50C-AttoOxa11, N. clavipes Q50C
k diss [9]: 1.88 s⁻¹

N-terminal domain (NTD) of major ampullate spidroin 1 (MaSp1) from Latrodectus hesperus (domain or fragment)
stoichiometry N [10]: 2
K d [11]: 0.14 nM
kon [12]: 2.19e+09 M⁻¹ s⁻¹

AttoOxa11-modified Q50C mutant of the MaSp1 NTD from Euprosthenops australis (domain or fragment)
koff [13]: 1.68 s⁻¹

MaSp1 N-terminal domain (NTD), L. geometricus
K d [14]: 0.46 10^-9 M
k ass (10^9 M^-1 s^-1) [15]: 1.39

MaSp1 NTD Q50C-AttoOxa11, L. geometricus Q50C
k diss [16]: 0.64 s⁻¹

MaSp1 N-terminal domain (NTD), N. clavipes
K d [17]: 0.73 10^-9 M
k ass (10^9 M^-1 s^-1) [18]: 2.58

MaSp1 NTD Q50C-AttoOxa11, E. australis Q50C
k diss [19]: 1.68 s⁻¹

B1: N-terminal domain (NTD) of major ampullate spidroin 1 (MaSp1) from Euprosthenops australis, Q05H60 24-156 (domain or fragment)
chain: SHTTPWTNPGLAENFMNSFMQGLSSMPGFTASQLDDMSTIAQSMVQSIQSLAAQGRTSPNKLQALNMAFASSMAEIAASEEGGGSLSTKTSSIASAMSNAFLQTTGVVNQPFINEITQLVSMFAQAGMNDVSA
kon [20]: 1.58e+09 M⁻¹ s⁻¹
stoichiometry N [21]: 2
K d [22]: 1.07 nM

B2: AttoOxa11-modified Q50C mutant of the MaSp1 NTD from Latrodectus hesperus (domain or fragment)
chain: PWSSKANADAFINSFISAASNTGSFSQDQMEDMSLIGNTLMCAMDNMGGRITPSKLQALDMAFASSVAEIAASEGGDLGVTTNAIADALTSAFYQTTGVVNSRFISEIRSLIGMFAQASAN
modifications: AttoOxa11 (maleimide derivative) on the cysteine at sequence position 50
koff [23]: 0.31 ± 0.02 s⁻¹

B3: N-terminal domain (NTD) of major ampullate spidroin 1 (MaSp1) from Latrodectus geometricus (domain or fragment)
chain: PWSSKANADAFINSFISSAQNTGSFSQDQMDDMSLIGNTLMTAMDNMGGRITPSKLQALDMAFASSVAEIAASEGGDLGVTTNAIADALTSAFYQTTGVVNNRFISEIRSLISMFAQASAN
kon [24]: 1.39e+09 M⁻¹ s⁻¹
stoichiometry N [25]: 2
Kd [26]: 0.46 nM

B4: AttoOxa11-modified Q50C mutant of the MaSp1 NTD from Latrodectus geometricus (domain or fragment)
chain: PWSSKANADAFINSFISSAQNTGSFSQDQMDDMSLIGNTLMCAMDNMGGRITPSKLQALDMAFASSVAEIAASEGGDLGVTTNAIADALTSAFYQTTGVVNNRFISEIRSLISMFAQASAN
modifications: AttoOxa11 (maleimide derivative) on the cysteine at sequence position 50
koff [23]: 0.64 ± 0.02 s⁻¹

B5: AttoOxa11-modified Q50C mutant of the MaSp1 NTD from Nephila clavipes (domain or fragment)
chain: PWSSTELADAFINAFMNEAGRTGAFTADQLDDMSTIGDTIKCAMDKMARSNKSSKGKLQALNMAFASSMAEIAAVEQGGLSVDAKTNAIADSLNSAFYQTTGAANPQFVNEIRSLINMFAQSSAN
modifications: AttoOxa11 (maleimide derivative) on the cysteine at sequence position 50
koff [23]: 1.88 ± 0.05 s⁻¹
